The text below walks through data of article PMC12661054, “The CIP2A-TOPBP1 axis facilitates mitotic DNA repair via MiDAS and MMEJ” (Nature Communications, 2025).

Square brackets hold non-standard residues; d marks the D form. Ends that are not written are not given here. fluorescein = fluorescein label on the N-terminus; pT = C[C@@H](OP(=O)(O)O)[C@H](N)C(=O)O

This assay concerns the target T1, GST-TOPBP1(BRCT0-2 1-290) WT (human, UniProt Q92547 1-290).
T1 construct: TOPBP1, human, residues 1-290 (BRCT0-2); expressed from pGEX-6P-1, eluted with glutathione, no cleavage described; also called TOPBP1 BRCT0-1-2; TOPBP1 BRCT 0-1-2 WT; source: E. coli BL21(DE3), purified (HiTrap GST, Superdex 200)
Kind of assay: fluorescence polarisation; 100 nM fluorescein-labelled SLX4 peptide, increasing concentrations of TOPBP1 BRCT fragment; room temperature; 25 mM HEPES pH 7.5, 150 mM NaCl, 1 mM EDTA, 0.25 mM TCEP, 0.002% Tween 20; single site with non-specific component. The settings on record: both partners purified.

B1: Flu-SLX4_pT1260 (peptide)
peptide: fluorescein-GYGTSWLVPA[pT]PLASRSR
modifications: also: phosphothreonine at Thr1260 (position 4 or 11)
notes: residues before the SLX4 stretch, not SLX4; SLX4, human, amino acids 1253-1267, pT1260; also called fluorescein tagged SLX4 pT1260-containing peptide; pThr1260 SLX4 peptide; source: synthetic peptide
In the case of B1, the binding result was “binds”.
